Reference: the DeepSol protein solubility set

experiment: soluble on expression in E. coli; label from the status in PepcDB or PDB records

Sequence | soluble on expression in E. coli
SFARGLKRKCVGHEEDVEGALAGLKTVSSYSLQRQSLLDMSLVKLQLCHMLVEPNLCRSVLIANTVRQIQEEMTQDGTWRTVAPQAAERAPLDRLVSTEILCRAAWGQEGAHPAPGLGDGHTQGPVSDLCPVTSAQAPRHLQSSAWEMDGPRENRGSFHKSLDQIFETLETKNPSCMEELFSDVDSPYYDLDTVLTGMMGGARPGPCEGLEGLAPATPGPSSSCKSDLGELDHVVEILVET | not soluble
SFDRALKPFLQSCHLRMLTDPVDQCVAYHLGRVRESLPELQIEIIADYEVHPNRRPKILAQTAAHVAGAAYYYQRQDVEADPWGNQRISGVCIHPRFGGWFAIRGVVLLPGIEVPDLPPRKPHDCVPTRADRIALLEGFNFHWRDWTYRDAVTPQERYSEEQKAYFSTPPAQRLALLGLAQPSEKPSSPSPDLPFTTPAPKKPGNPSRARSWLSPRVSPPASPGP | soluble
SFSSLPLTGENPGAWALVRDNSAKGITAGSGSQQTTYDPTRTEAALTASTTFALRRYDLAGRALYDLDFSKLNPQTPTRDQTGQITFNPFGGFGLSGAAPQQWNEVKNKVPVEVAQDPSNPYRFAVLLVPRSVVYYEQLQRGLGLPQQRTESGQNTSTTGAMFGLKVKNAEADTAKSNEKLQGAEATGSSTTSGSGQSTQRGGSSGDTKVKALKIEVKKKSDSEDNGQLQLEKNDLANAPIKRSEESGQSVQLKADDFGTALSSSGSGGNSNPGSPTPWRPW | soluble
SGARRMETDYNPVELSSMSGFEEGSELNGFEGADMKDMQLEAEAVVNDVLFAVNHMFVSKSMPCADDVAYINVETKERNRYCLELTEAGLRVVGYAFDQVEDHLQTPYHETVYSLLDTLSPAYREAFGNALLQRLEALKRDGQS | soluble
SGGAVSAGEDNDELIDNLKEAQYIRTELVEQAFRAIDRADYYLEEFKENAYKDLAWKHGNIHLSAPCIYSEVMEALDLQPGLSFLNLGSGTGYLSSMVGLILGPFGVNHGVELHSDVIEYAKQKLDFFIRTSDSFDKFDFCEPSFVTGNCLEISPDCSQYDRVYCGAGVQKEHEEYMKNLLKVGGILVMPLEEKLTKITRTGPSAWETKKILAVSFAPLIQPCHSESGKSRLVQLRSPSFVQGWSVVVLSQLTAASTFQAEAILPSQSPTWLRLQVLATMPN | not soluble
SGGGGGILEKLGDICFSLRYVPTAGKLTVVILEAKNLKKMDVGGLSDPYVKIHLMQNGKRLKKKKTTIKKNTLNPYYNESFSFEVPFEQIQKVQVVVTVLDYDKIGKNDAIGKVFVGYNSTGAELRHWSDMLANPRRPIAQWHTLQVEEEVDAMLAVKK | soluble
SGNRGVVYLGSGKVEVQKIDYPKMQDPRGKKIEHGVILKVVSTNICGSDQHMVRGRTTAQVGLVLGHEITGEVIEKGRDVENLQIGDLVSVPFNVACGRCRSCKEMHTGVCLTVNPARAGGAYGYVDMGDWTGGQAEYVLVPYADFNLLKLPDRDKAMEKIRDLTCLSDILPTGYHGAVTAGVGPGSTVYVAGAGPVGLAAAASARLLGAAVVIVGDLNPARLAHAKAQGFEIADLSLDTPLHEQIAALLGEPEVDCAVDAVGFEARGHGHEGAKHEAPATVLNSLMQVTRVAGKIGIPGLYVTEDPGAVDAAAKIGSLSIRFGLGWAKSHSFHTGQTPVMKYNRALMQAIMWDRINIAEVVGVQVISLDDAPRGYGEFDAGVPKKFVIDPHKTFSAA | soluble
SGPMDSRALRQGNRLLGNAEGCAALEITMSGPLLRFNTDAVIAVTGAHIPITLDGESCAMNTALLVRAGSTLALGTIAGAGVRSYLCVRGGLDVPDYLGSKSTFTLGQFGGHGGRALRAGDVLHIARLVDRTAGQKIADEQLDALQDVRQIRVIYGPHAAPEYFTESYIETFFATDWEVHFNSSRTGVRLIGPKPEWVRADGGEAGLHPSNIHDNPYAIGAVDFTGDMPVILGPDGPSLGGFVCPVTIIEADLWQLGQLKAGDKVRFYPVSVEACHAAMNSQGPLPQGPLNTSGSGL | not soluble
SGRPLEGQPLRALDLYPEPAFLRSGKDPKSSPASSPSFAVLGPEVRSTGGQAGSRRRPSAPCSQDRAAAEGAPALLGGSPSSGSPGHPPGSAFGVEAGCRALNVSEHARGGFALGLPFGLSGGAYLFLLLDGAGDPKPTPEAPISSADGRAWFPSESSWQLPQLPAGSTSGSEPRARPGLGPRQLPTGPRDGAAGQGPGRGLTARLGREREIDCGPRQAGHGGTATDTGRAGSGARHRPPRDRGTPGLRTH | soluble
SGRVQLFEISLSHGRVVYSPGEPLAGTVRVRLGAPLPFRAIRVTCIGSCGVSNKANDTAWVVEEGYFNSSLSLADKGSLPAGEHSFPFQFLLPATAPTSFEGPFGKIVHQVRAAIHTPRFSKDHKCSLVFYILSPLNLNSIPDIEQPNVASATKKFSYKLVKTGSVVLTASTDLRGYVVGQALQLHADVENQSGKDTSPVVASLLQKVSYKAKRWIHDVRTIAEVEGAGVKAWRRAQWHEQILVPALPQSALPGCSLIHIDYYLQVSLKAPEATVTLPVFIGNIAVNHAPVSPRPGLGLPPGAPPLVVPSAPPQEEAEAEAAAGGPHFLDPVFLSTKSHSQRQPLLATLSSVPGAPEPCPQDGSPASHPLHPPLCISTGATVPYFAEGSGGPVPTTSTLILPPEYSSWGYPYEAPPSYEQSCGGVEPSLTPES | soluble
SGSSTGDLVTRIQSAHRFDHDALFRFAADNVSGFPTNPSQFKVSQFGHGQSNPTFLIEVGSGSSLKRYVLRKKPPGKLLQSAHAVDREFQVLRALGEHTQVPVPKVFCLCTDPAVIGTAFYIMEFMEGRIFIDPKLPNVAPERRNAIYRATAKALASLHSADVDAIGLEKYGRRGNYCKRQIDRWFKQYLASTSEGKPERNPKMFELVDWLRKNIPAEDSTGATSGLVHGDFRIDNLVFHPSEDRVIGIIDWELSTLGNQMCDVAYSCMHYIVNVQLDKEHVSEGFETTGLPEGMLSMPEFLLEYCSASGKPWPAANWKFYVAFSLFRAASIYTGVYSRWLMGNASAGERARNTGVQANELVESALGYIARENVLPEHPPSVQRDVSPSYESLVDGSGRFIPNRKVLELRQKLIKFMETHIYPMENEFSKLAQSDMRWTVHPQEEKLKEMAKREGLWNLFVPVDSAARARRELAATENKHNLSGKSFDQLFGEGLTNLEYGYLCEIMGRSVWAPQVFNCGAPDTGNMEVILRYGNKEQISEWLIPLLEGRIRSGFAMTEPQVASSDATNIECSIRRQGDSYVINGTKWWTSGAMDPRCRVLILMGKTDFNAPKHKQQSMILVDMRTPGISVKRPLTVFGFDDAPHGHAEISFENVVVPAKNILLGEGRGFEIAQGRLGPGRLHHCMRLIGAAERGMELMAQRALSRKTFGKFIAQHGSFVSDLAKLRVELEGTRLLVLEAADHLDKFGNKKARGILAMAKVAAPNMALKVLDTAIQVHGAAGVSSDTVLAHLWATARTLRIADGPDEVHLGTIGKLELQRASKL | soluble
SHPDLNKLLELWPHIQEYQDLALKHGINDIFQDNGGKLLQVLLITGLTVLPGREGNDAVDNAGQEYELKSINIDLTKGFSTHHHMNPVIIAKYRQVPWIFAIYRGIAIEAIYRLEPKDLEFYYDKWERKWYSDGHKDINNPKIPVKYVMEHGTKIYGSGGSHPDLNKLLELWPHIQEYQDLALKHGINDIFQDNGGKLLQVLLITGLTVLPGREGNDAVDNAGQEYELKSINIDLTKGFSTHHHMNPVIIAKYRQVPWIFAIYRGIAIEAIYRLEPKDLEFYYDKWERKWYSDGHKDINNPKIPVKYVMEHGTKIYGSHHHHHH | soluble
SHSEAEESKEVAADVFNSKNLAVQAQKKILGKMVSKSIATTLIDDTSSEVLDELYRVTREYTQNKKEAEKIIKNLIKTVIKLAILYRNNQFNQDELALMEKFKKKVHQLAMTVVSFHQVDYTFDRNVLSRLLNECREMLHQIIQRHLTAKSHGRVNNVFDHFSDCEFLAALYNPFGNFKPHLQKLCDGINKMLDEENI | soluble
SIKNGILYLEDPVNHEWYPHYFVLTSSKIYYSEETSSDQGNEDEEEPKEASGSTELHSSLEVLFQGPNPAILEPEREHLDENSPLGDLLRGVLDVPACQIAIRPEGKNNRLFVFSISMPSVAQWSLDVAADSQEELQDWVKKIREVAQTA | soluble
SKELKVLVLCAGSGTSAQLANAINEGANLTEVRVIANSGAYGAHYDIMGVYDLIILAPQVRSYYREMKVDAERLGIQIVATRGMEYIHLTKSPSKALQFVLEHYQ | not soluble
SKGKLGEKISQFKIVEELKAKGLYAYFRPIQSKQDTEVKIDGRRVLMFGSNSYLGLTTDTRIIKAAQDALEKYGTGCAGSRFLNGTLDIHVELEEKLSAYVGKEAAILFSTGFQSNLGPLSCLMGRNDYILLDERDHASIIDGSRLSFSKVIKYGHNNMEDLRAKLSRLPEDSAKLICTDGIFSMEGDIVNLPELTSIANEFDAAVMVDDAHSLGVIGHKGAGTASHFGLNDDVDLIMGTFSKSLASLGGFVAGDADVIDFLKHNARSVMFSASMTPASVASTLKALEIIQNEPEHIEKLWKNTDYAKAQLLDHGFDLGATESPILPIFIRSNEKTFWVTKMLQDDGVFVNPVVSPAVPAEESLIRFSLMATHTYDQIDEAIEKMVKVFKQAEVETLI | soluble
SKHSNKPYDSFQDELEDYIKVQKARGLEPKTCFRRMRGEYLESCGYREEFDSRPRYRMFDQRLPSGTNHSYPRSCSSSQTEDRVPQWLPAHDKIRLNSLSYCQFTRDGFSEKPVPLNLSQQEYNCGSYSVESVVHKRLCSEHSTIDPQVSHRQMHQKRKKHVEEGREKQEERPKHERKRSSEEMDLNKHRSIQRKKTKAETETVQDGTEKLKNRKEKKTRDVSSKKEDRKRRKEKKEQGEERTEEEMLWDQSILGF | soluble
SKVKEGKDLIVGLDIGTSKIVAIVAEMKPEGGFEIIGLGSHLSRGLKKGVVVNIEATVNAIQRALEEVELMAGCRISEVYAGIAGNHIRGFNSHGMVAIKDKEVTQADVEKVMETAKAVNIPADQ | not soluble
SLAANMYRVGDYVYFENSSSNPYLIRRIEELNKTASGNVEAKVVCFYRRRDISNTLIMLADKHAKEIEEESETTVEADLTDKQKHQLKHRELFLSRQYESLPATHIRGKCSVALLNETESVLSYLDKEDTFFYSLVYDPSLKTLLADKGEIRVGPRYQADIPEMLLEGESDEREQSKLEVKVWDPNSPLTDRQIDQFLVVARAVGTFARALD | soluble
SLDGELDTQPLIEQLWQAGKRVYLPVLHPFSPGNLLFLHYHPQSALVTNRLNIREPRLDVRDVLPLAKLDVLVTPLVAFDEGGQRLGMGGGFYDRTLQNWQQHKILPVGYAHDCQLVEKLPVEEWDIPLPAVVTPSKIWEW | soluble
SLDRLYAKAMKSKYTKLLLENFLLSPYEMTDPAIMAGLQKNVYPKYDELKTLRGLEGVKKHLSYVREKQEPYSKGNIAKYLKKAIEQYLPTVKRQDID | soluble
SLDSKTTVNINIPSGSSVSAIASILKKNDVIKSEKAFQYYVKYKGASGFQAGFYHLNKGMDLDAIIQKLTSGATGYAFQITVTEGAQLTQIAAAIADETKYSKKQVIAKLDDETFINQLKKEFPDTVTNDVFNKNIKHPLEGYLFPATYPFNDPDTSLEDIIKAMIKQTNSYVETYKSEMKKNKVSVHKLLTMASLIEEEATEKADRHKIASVFYNRLKKKMPLQTDPTVLYAAGKHKDRVLYKDLEIDSPYNTYKNTGLTPGPIANAGMSSWEAALHPDKTDYLYFLAKSNGEVVFTKTLKEHNKAKEKYISSKNEK | soluble
SLEGWGRGLAMFYIRRVETPEGLVMVLVTDEDVMERAVYDEERGVRIIVSRSFYGGSLGTEADAIKTIEKADIIVLTGEKSVSIGVRMGLVNPDSVLEVKGIKQVQVFKFSY | soluble
